The supplement of paper PMC10126150
± gives the standard deviation of the averaged measurements.

Tested on: ATP
Assay: switch fluorescence ratio, 500 uM ATP over buffer (Cy3 cluster intensity, sum of 5 cycles each) (fold (ratio)); higher = stronger signal-on switching upon ATP binding; sequences stand for … in TCGTCGGCAGCGTCAGATGTGTATAAGAGACAGTTTTTTTTTTTTTTTTTTTTTTTTT…TC
Details: aptamer strand: ATP DNA aptamer (quencher-CACCTGGGGGAGTATTGCGGAGGAAGG + anchor), 100 nM annealed; ATP concentration: 500 uM
Method in brief: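 Between each of five buffer/ATP cycles, the flow-cell was stripped with NaOH and re-annealed. Each cycle imaged Cy3-labelled switching-strand clusters, annealed to 100 nM quencher-labelled ATP aptamer on a modified Illumina MiSeq flow-cell, first in selection buffer and then after 15 min with 500 uM ATP at 22 °C. The fluorescence ratio is summed target-cycle over summed buffer-cycle Cy3 intensity per cluster, averaged per switch-domain sequence, with clusters outside 100-1000 RFU excluded.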
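Further: ATP exposure 15 min at 22 °C before imaging.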

Sequence | switch fluorescence ratio
CGCCCCAGTG | 3.02 ± 1.8
CGCCCCTGGG | 1.13 ± 0.18
CGCCCTTGGC | 1.07 ± 0.036
CGCCGAGATT | 1.08 ± 0.058
CGCCGATATA | 1.12 ± 0.063
CGCCGCTGGG | 1.993 ± 0.0075
CGCCGGCGGG | 0.978 ± 0.034
CGCCGGGGGC | 1.03 ± 0.014
CGCCGGGTGC | 2.75 ± 0.43
CGCCGTGTCG | 0.927 ± 0.049
CGCCTAAGGG | 0.993 ± 0.037
CGCCTCAGGG | 1.14 ± 0.018
CGCCTGGCCG | 0.9439 ± 0.0079
CGCCTGGGAT | 1.03 ± 0.0027
CGCGATGGCG | 0.98 ± 0.017
CGCGATTATT | 1.09 ± 0.04
CGCGCAGAT | 1.02 ± 0.025
CGCGCTTTCA | 1.02 ± 0.027
CGCGGAGGGG | 1.01 ± 0.049
CGCGGAGTAG | 0.9869 ± 0.0043
CGCGGGCACT | 1.04 ± 0.04
CGCGGGGGGC | 1.05 ± 0.084
CGCGGGGTAG | 1.038 ± 0.0072
CGCGGGGTGT | 1.05 ± 0.03
CGCGGTAATT | 1.05 ± 0.063
CGCGGTATCT | 1.02 ± 0.033

Sequence | switch fluorescence ratio
CGCGGTATTA | 1.02 ± 0.013
CGCGGTTAAA | 1.18 ± 0.19
CGCGTGAAGA | 1.12 ± 0.11
CGCGTTCGGA | 1.04 ± 0.015
CGCTAAAGGG | 1.042 ± 0.0042
CGCTAATCAA | 1.09 ± 0.042
CGCTACGATG | 1.082 ± 0.0078
CGCTAGGTTG | 1.01 ± 0.026
CGCTATGGGA | 1.02 ± 0.026
CGCTATTATA | 1.09 ± 0.052
CGCTATTATT | 1.05 ± 0.04
CGCTCCGCCT | 2.36 ± 0.11
CGCTCCGGGC | 1.23 ± 0.058
CGCTCTAAAA | 1.01 ± 0.011
CGCTGAGATC | 1.016 ± 0.002
CGCTGGGTAC | 2.24 ± 0.28
CGCTGTCAGC | 1.002 ± 0.0037
CGCTTAACCG | 1.04 ± 0.043
CGCTTATACG | 1.78 ± 0.58
CGCTTATCAT | 0.98 ± 0.03
CGCTTCATTA | 1.01 ± 0.063
CGCTTGGCTC | 1.078 ± 0.0093
CGCTTTGACT | 1.08 ± 0.021
CGGAAAAAGT | 0.97 ± 0.013
CGGAAAAATC | 1.53 ± 0.76
CGGAAAAATT | 1.04 ± 0.12

Sequence | switch fluorescence ratio
CGGAAACTTT | 1.0088 ± 0.00067
CGGAAAGGGA | 1.01 ± 0.022
CGGAAATGAA | 0.9824 ± 0.0028
CGGAAGCTAA | 1.46 ± 0.16
CGGAAGGCTA | 1.025 ± 0.0069
CGGAAGGGGA | 1.05 ± 0.027
CGGAAGTTCT | 0.993 ± 0.049
CGGAATAGCT | 1.22 ± 0.024
CGGAATTTC | 1.11 ± 0.05
CGGACACGAA | 0.981 ± 0.022
CGGACACGTT | 0.983 ± 0.052
CGGACCAGCG | 0.965 ± 0.0086
CGGACGAGAG | 0.998 ± 0.022
CGGACGTGAC | 2.79 ± 0.2
CGGACTAGGT | 1.02 ± 0.011
CGGACTCATT | 1.09 ± 0.15
CGGACTGGGC | 0.959 ± 0.051
CGGAGAAAGG | 1.03 ± 0.069
CGGAGAAGTT | 1 ± 0.015
CGGAGATCGG | 0.999 ± 0.013
CGGAGGAAGG | 1.044 ± 0.0072
CGGAGGCTTG | 1.01 ± 0.061
CGGAGGGTGT | 0.997 ± 0.033
CGGAGGTAGC | 1.03 ± 0.058
CGGAGTCGCC | 1.01 ± 0.012
CGGAGTTAAG | 1.07 ± 0.044

Sequence | switch fluorescence ratio
CGGAGTTACA | 1.068 ± 0.0072
CGGAGTTTTT | 0.9971 ± 0.0058
CGGATACGGT | 0.997 ± 0.04
CGGATAGTGC | 1.07 ± 0.11
CGGATCGGAT | 0.976 ± 0.04
CGGATGATAG | 1 ± 0.059
CGGATGGAGG | 0.988 ± 0.042
CGGATGGCCT | 1.03 ± 0.019
CGGATGTTCA | 1.001 ± 0.0059
CGGATTAGAG | 0.9641 ± 0.0032
CGGATTGAAT | 1 ± 0.072
CGGATTGTGT | 1.018 ± 0.0055
CGGATTTAAG | 0.9979 ± 0.0066
CGGATTTAGA | 0.987 ± 0.043
CGGCAATGGT | 1.87 ± 1.1
CGGCACCCTT | 0.997 ± 0.017
CGGCAGCGGG | 1.03 ± 0.013
CGGCAGCTGA | 1 ± 0.011
CGGCAGGGTG | 1.05 ± 0.0092
CGGCAGGTAA | 1.05 ± 0.03
CGGCATGGGT | 0.989 ± 0.018
CGGCCAGGGG | 1.5 ± 0.09
CGGCCATTTG | 0.993 ± 0.059
CGGCCCCCGT | 1.4 ± 0.46
CGGCCTGTGC | 1.03 ± 0.087
CGGCGATGTT | 0.9867 ± 0.0076

Sequence | switch fluorescence ratio
CGGCGATTTA | 1.003 ± 0.009
CGGCGCCCA | 0.997 ± 0.01
CGGCGCCTGT | 1.01 ± 0.05
CGGCGGGCGA | 1.03 ± 0.02
CGGCGGGGGA | 1.04 ± 0.043
CGGCGTACAT | 1.04 ± 0.02
CGGCGTAGTC | 1.02 ± 0.035
CGGCGTGGGG | 1.03 ± 0.027
CGGCTAACAA | 1.02 ± 0.013
CGGCTCAACT | 1.01 ± 0.022
CGGCTGGGTA | 1.014 ± 0.0054
CGGCTGTGCT | 1 ± 0.022
CGGCTTAAGT | 1.01 ± 0.035
CGGCTTACAC | 1.12 ± 0.017
CGGCTTAGTA | 0.988 ± 0.062
CGGCTTATTC | 1.04 ± 0.015
CGGCTTGATA | 1.01 ± 0.033
CGGCTTGGGG | 1 ± 0.015
CGGCTTTTGG | 0.9617 ± 0.0084
CGGGAAAGTC | 0.996 ± 0.027
CGGGAAGAGC | 1.033 ± 0.0043
CGGGAATCTC | 1.085 ± 0.0081
CGGGAATTTC | 1.04 ± 0.027
CGGGACATGA | 1.01 ± 0.012
CGGGACCGGC | 1.04 ± 0.13
CGGGACTCTT | 0.995 ± 0.017

Sequence | switch fluorescence ratio
CGGGACTGCT | 0.9825 ± 0.0052
CGGGAGAGTA | 1.54 ± 0.82
CGGGAGCAGG | 1.09 ± 0.014
CGGGAGGACT | 0.989 ± 0.057
CGGGAGGTCG | 1.05 ± 0.082
CGGGAGGTGT | 1.029 ± 0.0037
CGGGAGTAGG | 1.04 ± 0.041
CGGGAGTTAA | 1.01 ± 0.015
CGGGAGTTGT | 0.99 ± 0.042
CGGGATAGAT | 1 ± 0.039
CGGGATATAA | 0.989 ± 0.022
CGGGATATCG | 1.01 ± 0.029
CGGGATGCGC | 1.04 ± 0.066
CGGGATGTGC | 0.99328 ± 6e-06
CGGGATTAGT | 0.99 ± 0.031
CGGGATTATG | 1.01 ± 0.052
CGGGATTTAA | 1.03 ± 0.054
CGGGCAGCGG | 0.955 ± 0.06
CGGGCCACGA | 1.04 ± 0.026
CGGGCCCCGG | 1.74 ± 0.35
CGGGCCTGAA | 0.999 ± 0.041
CGGGCGAATA | 1 ± 0.017
CGGGCGAGGG | 0.959 ± 0.011
